B1: HA-SNAP-mGluR3-C127A [modified: SNAP tag labelled with BG-LD555 (BG-LD655 in two-colour SiMPull); SNAP tag labelled with BG-LD555 (BG-LD655 in two-colour SiMPull)] [rat] / itself (parent complex)
chain: LGDHNFMRREIKIEGDLVLGGLFPINEKGTGTEECGRINEDRGIQRLEAMLFAIDEINKDNYLLPGVKLGVHILDTCSRDTYALEQSLEFVRASLTKVDEAEYMAPDGSYAIQENIPLLIAGVIGGSYSSVSIQVANLLRLFQIPQISYASTSAKLSDKSRYDYFARTVPPDFYQAKAMAEILRFFNWTYVSTVASEGDYGETGIEAFEQEARLRNICIATAEKVGRSNIRKSYDSVIRELLQKPNARVVVLFMRSDDSRELIAAANRVNASFTWVASDGWGAQESIVKGSEHVAYGAITLELASHPVRQFDRYFQSLNPYNNHRNPWFRDFWEQKFQCSLQNKRNHRQVCDKHLAIDSSNYEQESKIMFVVNAVYAMAHALHKMQRTLCPNTTKLCDAMKILDGKKLYKEYLLKINFTAPFNPNKGADSIVKFDTFGDGMGRYNVFNLQQTGGKYSYLKVGHWAETLSLDVDSIHWSRNSVPTSQCSDPCAPNEMKNMQPGDVCCWICIPCEPYEYLVDEFTCMDCGPGQWPTADLSGCYNLPEDYIKWEDAWAIGPVTIACLGFLCTCIVITVFIKHNNTPLVKASGRELCYILLFGVSLSYCMTFFFIAKPSPVICALRRLGLGTSFAICYSALLTKTNCIARIFDGVKNGAQRPKFISPSSQVFICLGLILVQIVMVSVWLILETPGTRRYTLPEKRETVILKCNVKDSSMLISLTYDVVLVILCTVYAFKTRKCPENFNEAKFIGFTMYTTCIIWLAFLPIFYVTSSDYRVQTTTMCISVSLSGFVVLGCLFAPKVHIVLFQPQKNVVTHRLHLNRFSVSGTATTYSQSSASTYVPTVCNGREVLDSTTSSL
B2: HA-SNAP-mGluR2 [modified: SNAP tag labelled with BG-LD555 (BG-LD655 in two-colour SiMPull); SNAP tag labelled with BG-LD555 (BG-LD655 in two-colour SiMPull)] [rat] / itself (parent complex)
chain: EGPAKKVLTLEGDLVLGGLFPVHQKGGPAEECGPVNEHRGIQRLEAMLFALDRINRDPHLLPGVRLGAHILDSCSKDTHALEQALDFVRASLSRGADGSRHICPDGSYATHSDAPTAVTGVIGGSYSDVSIQVANLLRLFQIPQISYASTSAKLSDKSRYDYFARTVPPDFFQAKAMAEILRFFNWTYVSTVASEGDYGETGIEAFELEARARNICVATSEKVGRAMSRAAFEGVVRALLQKPSARVAVLFTRSEDARELLAATQRLNASFTWVASDGWGALESVVAGSERAAEGAITIELASYPISDFASYFQSLDPWNNSRNPWFREFWEERFHCSFRQRDCAAHSLRAVPFEQESKIMFVVNAVYAMAHALHNMHRALCPNTTHLCDAMRPVNGRRLYKDFVLNVKFDAPFRPADTDDEVRFDRFGDGIGRYNIFTYLRAGSGRYRYQKVGYWAEGLTLDTSFIPWASPSAGPLPASRCSEPCLQNEVKSVQPGEVCCWLCIPCQPYEYRLDEFTCADCGLGYWPNASLTGCFELPQEYIRWGDAWAVGPVTIACLGALATLFVLGVFVRHNATPVVKASGRELCYILLGGVFLCYCMTFVFIAKPSTAVCTLRRLGLGTAFSVCYSALLTKTNRIARIFGGAREGAQRPRFISPASQVAICLALISGQLLIVAAWLVVEAPGTGKETAPERREVVTLRCNHRDASMLGSLAYNVLLIALCTLYAFKTRKCPENFNEAKFIGFTMYTTCIIWLAFLPIFYVTSSDYRVQTTTMCVSVSLSGSVVLGCLFAPKLHIILFQPQKNVVSHRAPTSRFGSAAPRASANLGQGSGSQFVPTVCNGREVVDSTTSSL

Among the data in article PMC8102066 (2021) are screen value values, retold here.

One test covers variants of B1. The test is described as follows: SiMPull; SNAP-tagged constructs labeled with LD555; 6 movies; read off a plot.
For the variant chain 1 S664A, chain 1 F668A, chain 1 G672A, the screen value was about 74%.

The next test covers variants of B2. The test is described as follows: SiMPull; shaded bar, data repeated from Figure 1F; read off a plot.
As for chain 1 C103A, the screen value was about 91%.
